Source: patent US12358959B2, “Compositions and methods for oligodendrocyte development” (CHILDREN'S MEDICAL CENTER CORPORATION, priority 2016, dated 2025)

T1: human recombinant Transglutaminase 2 (TG2) (human, UniProt P21980 1-687, limits assumed)
T1 construct: also called recombinant TG2; recombinant TGM2
T1 sequence: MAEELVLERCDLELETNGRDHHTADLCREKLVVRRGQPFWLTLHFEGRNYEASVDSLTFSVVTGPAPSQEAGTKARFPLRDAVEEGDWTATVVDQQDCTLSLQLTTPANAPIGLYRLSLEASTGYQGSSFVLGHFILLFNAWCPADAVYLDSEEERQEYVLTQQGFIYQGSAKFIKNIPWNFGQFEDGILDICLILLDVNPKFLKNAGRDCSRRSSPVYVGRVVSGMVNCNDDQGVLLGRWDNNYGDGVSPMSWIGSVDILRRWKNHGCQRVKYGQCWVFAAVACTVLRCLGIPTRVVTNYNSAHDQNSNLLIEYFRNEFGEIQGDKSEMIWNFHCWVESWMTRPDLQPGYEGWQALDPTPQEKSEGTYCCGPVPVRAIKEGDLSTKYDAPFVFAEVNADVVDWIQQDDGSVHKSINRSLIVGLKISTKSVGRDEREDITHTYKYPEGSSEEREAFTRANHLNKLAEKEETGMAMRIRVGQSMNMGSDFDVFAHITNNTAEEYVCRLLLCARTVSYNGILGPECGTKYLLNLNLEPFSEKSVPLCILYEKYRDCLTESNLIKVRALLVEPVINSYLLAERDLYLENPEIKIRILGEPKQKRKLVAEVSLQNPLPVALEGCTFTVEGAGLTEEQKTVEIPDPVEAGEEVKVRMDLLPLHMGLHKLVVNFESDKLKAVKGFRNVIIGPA

T2: Transglutaminase 2 (Tgm2), mouse, endogenous (mixed glial cell lysate / microglia-derived) (mouse, UniProt P21981 2-686)
T2 construct: Endogenous protein captured from lysate, or present in mouse tissue; also called TG2; microglial TG2
T2 sequence (looked up): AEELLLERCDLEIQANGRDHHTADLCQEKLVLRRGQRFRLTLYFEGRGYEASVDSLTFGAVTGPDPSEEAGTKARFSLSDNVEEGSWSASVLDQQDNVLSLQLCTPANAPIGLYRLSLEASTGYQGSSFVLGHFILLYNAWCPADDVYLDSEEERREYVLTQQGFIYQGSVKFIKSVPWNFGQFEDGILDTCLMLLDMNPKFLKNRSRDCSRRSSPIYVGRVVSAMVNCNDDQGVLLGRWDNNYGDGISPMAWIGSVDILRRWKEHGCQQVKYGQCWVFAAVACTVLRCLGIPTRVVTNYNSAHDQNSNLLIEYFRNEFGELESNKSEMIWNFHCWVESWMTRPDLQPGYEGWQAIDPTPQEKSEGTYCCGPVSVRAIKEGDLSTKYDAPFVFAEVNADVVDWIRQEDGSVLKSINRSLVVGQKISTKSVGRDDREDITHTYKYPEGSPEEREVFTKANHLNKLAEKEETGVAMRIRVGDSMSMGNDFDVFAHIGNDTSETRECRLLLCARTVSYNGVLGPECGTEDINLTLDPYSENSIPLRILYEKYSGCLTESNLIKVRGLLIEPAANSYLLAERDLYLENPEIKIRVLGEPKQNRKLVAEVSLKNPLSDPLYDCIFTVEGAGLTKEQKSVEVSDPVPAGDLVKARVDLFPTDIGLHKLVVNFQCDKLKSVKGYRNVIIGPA


Columns and labels:
GPR56 NTF (GPR56^N) [1] = biological target: GPR56 NTF (GPR56^N) (Mus musculus, UniProt Q8K209); conditions: between amino acids 27-160; cited from earlier work
GPR56 NTF (GPR56^N) [2] = biological target: GPR56 NTF (GPR56^N) (Mus musculus, UniProt Q8K209, DEL93-142); conditions: aa 93-142 deleted; cited from earlier work
Sequence of GPR56 NTF (GPR56^N) (Mus musculus, UniProt Q8K209, DEL93-142) (Q8K209 with tags, fused parts or gaps DEL93-142): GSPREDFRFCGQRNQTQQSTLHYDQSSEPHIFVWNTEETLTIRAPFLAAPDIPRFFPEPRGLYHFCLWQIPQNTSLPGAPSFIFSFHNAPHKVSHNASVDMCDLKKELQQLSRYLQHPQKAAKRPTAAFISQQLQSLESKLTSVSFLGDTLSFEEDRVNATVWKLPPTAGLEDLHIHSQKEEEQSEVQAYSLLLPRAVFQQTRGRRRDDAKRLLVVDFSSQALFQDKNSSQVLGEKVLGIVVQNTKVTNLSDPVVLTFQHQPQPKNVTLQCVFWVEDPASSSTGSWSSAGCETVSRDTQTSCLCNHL

[3] = biological target: T1, human recombinant Transglutaminase 2 …; assay: told in words; NTF release from HEK 293T cells expressing mouse GPR56
Source text: HEK 293T cells were transiently transfected with mouse Gpr56 cDNA. […] The conditioned media were harvested, filtered, and concentrated as previously described. Equal volumes of the concentrated media were used for Western blot (Luo et al., PLOS One 9, e100043, 2014), while the cell pellets were used for GTP-Rho pull-down assay.

[4] = biological target: T2, Transglutaminase 2 (Tgm2), mouse, …; assay: figure legend of the summary model
GPR56^N = biological target: T3, GPR56^N (Mus musculus, UniProt Q8K209); assay: In vitro biotinylation/proteomics pull-down from mixed glial cell lysate with mass spectrometry; conditions: peptide sequences specific for binding to GPR56^N
T3 construct: Using the soluble N-terminal fragment of GPR56 (GPR56^N); made in house
Source text: To identify the ligand of GPR56 in OPCs, an in vitro biotinylation/proteomics approach was employed using single-step capture on streptavidin beads to purify the binding partner(s) of GPR56 (FIGS. 2A-2B). Proteins with more than five identified tryptic peptides in the Mass Spectrometry (MS) output from three independent experiments are listed at Table 1.
(§1) GPR56^N and GPR56^Ndel fusions proteins with either mFc or hFc tag were generated as previously described (Luo et al. Proc Natl Acad Sci USA 108, 12925-12930, 2011). BirA enzyme was used to in vitro biotinylate GPR56^N-mFc-biotag protein as previously described (De Laurenzi and Melino Mol Cell Biol 21, 148-155, 2001). Mixed glial cell lysate was incubated with biotinylated GPR56^N protein in lysis buffer [20 mM Hepes (pH 7.3), 150 mM NaCl, and 5 mM MgCl2] with protein inhibitor mixture (Roche Molecular Biochemicals) and 1% Brij 96 (Fluka). Streptavidin beads (Sigma) were used to affinity purify immunocomplexes. GPR56-associated proteins were eluted in 2×SDS loading buffer, subjected to SDS/PAGE. The whole lane was used for MS at the Taplin Biological Mass Spectrometry at Havard Medical School. MS data were searched against the mouse International Protein Index (IPI mouse 339) database using the protein identification software Mascot (v2.2.04, Matrix Sciences) (Luo et al. Proc Natl Acad Sci USA 108, 12925-12930, 2011).
as §1, with “al.,” for “al.”, “(Stacey et al., J” for “(De Laurenzi and Melino Mol Cell”, “Chem 277, 29283-29293, 2002).” for “21, 148-155, 2001).”, “(20” for “[20”, “[pH 7.3],” for “(pH 7.3),”, “MgCl2)” for “MgCl2]”

binding result [3]	binding result [4]	Peptide Number (Exp1) (GPR56^N; experiment 1)	Peptide Number (Exp2) (GPR56^N; experiment 2)	Peptide Number (Exp3) (GPR56^N; experiment 3)	Molecule	Binding to GPR56 NTF (GPR56^N) (GPR56 NTF (GPR56^N) [1])	Binding to GPR56^Ndel (GPR56 NTF (GPR56^N) [2])
–	–	–	–	–	Col III: collagen III (gene symbol Col3a1), ligand for GPR56 in the developing cerebral cortex (protein, UniProt P08121 155-1219, looked up) Collagen alpha-1(III) chain: QFDSYDVKSGVGGMGGYPGPAGPPGPPGPPGSSGHPGSPGSPGYQGPPGEPGQAGPAGPPGPPGALGPAGPAGKDGESGRPGRPGERGLPGPPGIKGPAGMPGFPGMKGHRGFDGRNGEKGETGAPGLKGENGLPGDNGAPGPMGPRGAPGERGRPGLPGAAGARGNDGARGSDGQPGPPGPPGTAGFPGSPGAKGEVGPAGSPGSNGSPGQRGEPGPQGHAGAQGPPGPPGNNGSPGGKGEMGPAGIPGAPGLIGARGPPGPAGTNGIPGTRGPSGEPGKNGAKGEPGARGERGEAGSPGIPGPKGEDGKDGSPGEPGANGLPGAAGERGPSGFRGPAGPNGIPGEKGPPGERGGPGPAGPRGVAGEPGRDGTPGGPGIRGMPGSPGGPGNDGKPGPPGSQGESGRPGPPGPSGPRGQPGVMGFPGPKGNDGAPGKNGERGGPGGPGLPGPAGKNGETGPQGPPGPTGPAGDKGDSGPPGPQGLQGIPGTGGPPGENGKPGEPGPKGEVGAPGAPGGKGDSGAPGERGPPGTAGIPGARGGAGPPGPEGGKGPAGPPGPPGASGSPGLQGMPGERGGPGSPGPKGEKGEPGGAGADGVPGKDGPRGPAGPIGPPGPAGQPGDKGEGGSPGLPGIAGPRGGPGERGEHGPPGPAGFPGAPGQNGEPGAKGERGAPGEKGEGGPPGPAGPTGSSGPAGPPGPQGVKGERGSPGGPGTAGFPGGRGLPGPPGNNGNPGPPGPSGAPGKDGPPGPAGNSGSPGNPGIAGPKGDAGQPGEKGPPGAQGPPGSPGPLGIAGLTGARGLAGPPGMPGPRGSPGPQGIKGESGKPGASGHNGERGPPGPQGLPGQPGTAGEPGRDGNPGSDGQPGRDGSPGGKGDRGENGSPGAPGAPGHPGPPGPVGPSGKSGDRGETGPAGPSGAPGPAGARGAPGPQGPRGDKGETGERGSNGIKGHRGFPGNPGPPGSPGAAGHQGAIGSPGPAGPRGPVGPHGPPGKDGTSGHPGPIGPPGPRGNRGERGSEGSPGHPGQPGPPGPPGAPGPCCGGGAAAIAGVGGEKSGGFSPYYG	binds	abrogated Col III binding
binds	binds	12	11	9	GPR56 (ADGRG1), mouse, on cells (oligodendrocyte precursor cells; HEK 293T cells transfected with mouse Gpr56 cDNA) (receptor, UniProt Q8K209 26-687, looked up, whole, on cells; not used here; also called OPC GPR56; OPC-GPR56) GSPREDFRFCGQRNQTQQSTLHYDQSSEPHIFVWNTEETLTIRAPFLAAPDIPRFFPEPRGLYHFCLYWSRHTGRLHLRYGKHDYLLSSQASRLLCFQKQEQSLKQGAPLIATSVSSWQIPQNTSLPGAPSFIFSFHNAPHKVSHNASVDMCDLKKELQQLSRYLQHPQKAAKRPTAAFISQQLQSLESKLTSVSFLGDTLSFEEDRVNATVWKLPPTAGLEDLHIHSQKEEEQSEVQAYSLLLPRAVFQQTRGRRRDDAKRLLVVDFSSQALFQDKNSSQVLGEKVLGIVVQNTKVTNLSDPVVLTFQHQPQPKNVTLQCVFWVEDPASSSTGSWSSAGCETVSRDTQTSCLCNHLTYFAVLMVSSTEVEATHKHYLTLLSYVGCVISALACVFTIAAYLCSRRKSRDYTIKVHMNLLSAVFLLDVSFLLSEPVALTGSEAACRTSAMFLHFSLLACLSWMGLEGYNLYRLVVEVFGTYVPGYLLKLSIVGWGFPVFLVTLVALVDVNNYGPIILAVRRTPERVTYPSMCWIRDSLVSYVTNLGLFSLVFLFNLAMLATMVVQILRLRPHSQNWPHVLTLLGLSLVLGLPWALVFFSFASGTFQLVILYLFSIITSFQGFLIFLWYWSMRFQAQGGPSPLKNNSDSAKLPISSGSTSSSRI	–	–
